How the values were obtained:
thrombin [1] = biological target: T1, thrombin (UniProt P00734;P00734 328-363;364-622); assay: kinetic exclusion assay (KinExA), two-population competitive fit; hypothetical second FA population (16%); the other 84% fixed at Kd 298 pM; PBS with 0.02% sodium azide and 1 mg/mL BSA; incubation 2 h (50 pM, 1 nM FA) or 6.5 h (10 pM FA); thrombin 5 pM to 1 uM; pH and temperature not stated
thrombin [2] = biological target: T1, thrombin; assay: kinetic exclusion assay (KinExA), n-curve analysis; 1:1 model; FA 10 pM, 50 pM, 1 nM; fitted FA activity ~47%; 1:1 fit deviates at high thrombin; PBS with 0.02% sodium azide and 1 mg/mL BSA; incubation 2 h (50 pM, 1 nM FA) or 6.5 h (10 pM FA); thrombin 5 pM to 1 uM; pH and temperature not stated

Binder: AGTCCGTGGTAGGGCAGGTTGGGGTGACT (structured_DNA) [29-nt thrombin aptamer (Tasset et al.), fluorescent aptamer FA]
- Kd (thrombin [1]): 500 nM
- Kd (thrombin [2]): 0.298 nM
